Assay results from the supplement of paper PMC7125110.
± gives the standard error. For part of these data: Fewer inactive variants are shown than the library holds.

B1: glmS ribozyme (parent)
chain: AUAAAAGCGCCAGAACUACAGAAAUGUAGUUGACGAGGAGGAGGUUUAUCGAAUUUUCGGCGGAUGCCUCCAAA

Legend:
Settings in all cases: with glucosamine-6-phosphate
glucosamine-6-phosphate [1] = variants of: B1; experiment: kcat; higher = faster cleavage; RNA array
Outline: (§1)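 Barcoded ribozyme variants on sequenced MiSeq chips were transcribed in situ by E. coli RNA polymerase and followed at 37 °C through a hybridised Cy3 probe. Glucosamine-6-phosphate at 40 μM to 10 mM in HEPES/KCl/Mg(OAc)2 buffer was flowed in, and tiles were imaged over ~14 h. Signals were normalised to baseline and to non-cleaving reference variants, and per-tile medians were fit to one- or two-exponential decays to give kobs. Weighted Michaelis–Menten fits across concentrations gave kcat and KM.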

glucosamine-6-phosphate [2] = variants of: B1; experiment: self-cleavage kobs at 640 uM GlcN6P; higher = faster cleavage; RNA array
Outline: as §1

glucosamine-6-phosphate [3] = variants of: B1; experiment: self-cleavage kobs at 2500 uM GlcN6P; higher = faster cleavage; RNA array
Outline: as §1

glucosamine-6-phosphate [4] = variants of: B1; experiment: self-cleavage kobs at 10000 uM GlcN6P; higher = faster cleavage; RNA array
Outline: as §1

glucosamine-6-phosphate [5] = variants of: B1; experiment: KM; higher = weaker cofactor use; RNA array
Outline: as §1

glucosamine-6-phosphate [6] = variants of: B1; experiment: self-cleavage kobs at 40 uM GlcN6P; higher = faster cleavage; RNA array
Outline: as §1

glucosamine-6-phosphate [7] = variants of: B1; experiment: self-cleavage kobs at 160 uM GlcN6P; higher = faster cleavage; RNA array
Outline: as §1

| Variant | kcat (glucosamine-6-phosphate [1]) | self-cleavage kobs at 640 uM GlcN6P (glucosamine-6-phosphate [2]) | self-cleavage kobs at 2500 uM GlcN6P (glucosamine-6-phosphate [3]) | self-cleavage kobs at 10000 uM GlcN6P (glucosamine-6-phosphate [4]) | KM (glucosamine-6-phosphate [5]) | self-cleavage kobs at 40 uM GlcN6P (glucosamine-6-phosphate [6]) | self-cleavage kobs at 160 uM GlcN6P (glucosamine-6-phosphate [7]) |
| --- | --- | --- | --- | --- | --- | --- | --- |
| A14U C70U C71G | 4.59e-05 ± 1.2e-05 s⁻¹ | 6.53e-05 ± 1.7e-05 s⁻¹ | 3.73e-05 ± 1.3e-05 s⁻¹ | 3.81e-05 ± 1.8e-05 s⁻¹ |  |  |  |
| A15G C70G | 0.000355 ± 6.5e-05 s⁻¹ | 0.000303 ± 2.7e-05 s⁻¹ |  | 0.00033 ± 5.4e-05 s⁻¹ | 180 ± 79 µM | 8.28e-05 ± 1.3e-05 s⁻¹ | 0.000137 ± 1.9e-05 s⁻¹ |
| A14G G32U | 0.00512 ± 0.001 s⁻¹ | 0.000476 ± 5.1e-05 s⁻¹ | 0.00158 ± 0.00017 s⁻¹ | 0.00329 ± 0.0004 s⁻¹ | 5710 ± 1400 µM | 4.82e-05 ± 7.9e-06 s⁻¹ | 0.000137 ± 1.8e-05 s⁻¹ |
| A14G A42G A53G | 0.0447 ± 0.015 s⁻¹ |  |  | 0.0405 ± 0.019 s⁻¹ | 781 ± 340 µM | 0.00216 ± 0.00072 s⁻¹ |  |
| A15C C71U | 0.00455 ± 0.0014 s⁻¹ | 0.00111 ± 0.00013 s⁻¹ | 0.00266 ± 0.00039 s⁻¹ | 0.00453 ± 0.00056 s⁻¹ | 1580 ± 690 µM | 0.000165 ± 1.6e-05 s⁻¹ | 0.000358 ± 4.6e-05 s⁻¹ |
| A15C U54C | 0.00621 ± 0.0013 s⁻¹ | 0.00131 ± 0.00024 s⁻¹ | 0.00384 ± 0.00078 s⁻¹ | 0.00556 ± 0.00077 s⁻¹ | 1740 ± 510 µM | 0.000176 ± 2.3e-05 s⁻¹ | 0.000481 ± 8.7e-05 s⁻¹ |
| A14G U56C | 0.021 ± 0.0052 s⁻¹ | 0.0033 ± 0.00071 s⁻¹ | 0.0088 ± 0.0011 s⁻¹ | 0.0157 ± 0.0028 s⁻¹ | 3490 ± 1200 µM | 0.000291 ± 4.2e-05 s⁻¹ | 0.000647 ± 0.00018 s⁻¹ |
| A14U A39U | 0.00814 ± 0.0024 s⁻¹ | 0.00161 ± 0.00024 s⁻¹ | 0.00346 ± 0.00063 s⁻¹ | 0.00632 ± 0.00089 s⁻¹ | 3050 ± 1200 µM | 0.000133 ± 1.7e-05 s⁻¹ | 0.000258 ± 6.7e-05 s⁻¹ |
| A15G A64C | 0.000162 ± 9.6e-06 s⁻¹ | 3.75e-05 ± 6.6e-06 s⁻¹ | 9.56e-05 ± 1.6e-05 s⁻¹ | 0.00013 ± 2.2e-05 s⁻¹ | 2040 ± 230 µM |  |  |
| A15C C68A | 2.89e-05 ± 1.1e-05 s⁻¹ |  |  |  |  |  |  |
| A14G A64G | 0.0806 ± 0.028 s⁻¹ | 0.0212 ± 0.0065 s⁻¹ |  | 0.0677 ± 0.017 s⁻¹ | 2030 ± 810 µM | 0.00184 ± 0.00024 s⁻¹ | 0.00428 ± 0.001 s⁻¹ |
| A15G C61A | < 1e-05 s⁻¹ |  |  |  |  |  |  |
| A15G C61U | 1.94e-05 ± 1e-06 s⁻¹ |  |  |  | 631 ± 280 µM |  |  |
| A14C U55C | 0.00399 ± 0.0011 s⁻¹ | 0.00122 ± 0.00015 s⁻¹ | 0.00171 ± 0.00035 s⁻¹ | 0.00439 ± 0.00076 s⁻¹ | 1800 ± 660 µM | 8.57e-05 ± 1.1e-05 s⁻¹ | 0.000312 ± 7.6e-05 s⁻¹ |
| A14C U55A | 0.00676 ± 0.0017 s⁻¹ | 0.00145 ± 0.00015 s⁻¹ | 0.0031 ± 0.00043 s⁻¹ | 0.00734 ± 0.00098 s⁻¹ | 2080 ± 720 µM | 0.000144 ± 1.6e-05 s⁻¹ | 0.000546 ± 8.1e-05 s⁻¹ |
